Patent USRE50313E1, “Musculoskeletal stem cell and medium for inducing differentiation of musculoskeletal stem cell” (CELLATOZ THERAPEUTICS, INC., priority 2017, dated 2025)

Tested on: hMSSCs
Assay: Differentiation tendency of MSSC medium vs. CM medium
Format: cell-based, human
Conditions: as compared when the CM medium was used
Description: The differentiation capacity of a medium (hereinafter, “CM medium”) obtained by replacing the human noggin (Life Technologies), i.e., the constitutional ingredient 1) of the seven constitutional ingredients of the MSSC medium of Example 2, with a conditioned medium (a culture supernatant obtained after culturing CF1 cells with a medium obtained by replacing DMEM/F12 in a complete medium with knockout DMEM (supplemented with 20% knockout serum replacement (Invitrogen, USA), 1 mM glutamine, 1% nonessential amino acids (Invitrogen, USA), 0.1 mM β-mercaptoethanol, 0.1% penicillin-streptomycin and 5 mg/mL bovine serum albumin)) (the remaining constitutional ingredients 2)-7) are identical) was compared with that of the MSSC medium.
Noggin is generally used to maintain the characteristics of hESCs during culturing (Chaturvedi G, Simone P D, Ain R, Soares M J, Wolfe M W. Noggin maintains pluripotency of human embryonic stem cells grown on Matrigel. Cell Prolif. 2009 August; 42(4): 425-33).

B1: noggin: human noggin, constitutional ingredient 1) of the MSSC medium, 250 ng/mL (protein, UniProt Q13253 28-232, looked up)
Noggin: QHYLHIRPAPSDNLPLVDLIEHPDPIFDPKEKDLNETLLRSLLGGHYDPGFMATSPPEDRPGGGGGAAGGAEDLAELDQLLRQRPSGAMPSEIKGLEFSEGLAQGKKQRLSKKLRRKLQMWLWSQTFCPVLYAWNDLGSRFWPRYVKVGSCFSKRSCSVPEGMVCKPSKSVHLTVLRWRCQRRGGQRCGWIPIQYPIISECKCSC
increase of tendency for osteogenic differentiation: ≥ 10 times
